From paper PMC3913756, “Mycobacterium tuberculosis Cyclophilin A Uses Novel Signal Sequence for Secretion and Mimics Eukaryotic Cyclophilins for Interaction with Host Protein Repertoire” (PLoS ONE, 2014)

Biological target: T1, His6-tagged M. tuberculosis PpiA (cyclophilin A) (Mycobacterium tuberculosis H37Rv, UniProt P9WHW3 1-182)
T1 construct: also called Rv0009; MTBPPIA
Experiment: native gel or EMSA
Details: both partners purified

B1: purified M. tuberculosis Ef-Tu (Tuf) (natural protein)
chain: not shown
binding result: binds
